According to patent US20050075488A1 (published 2005):
Positions count from the first letter of the chain named.

T1: human IL-1α (human, UniProt P01583 113-271)
T1 sequence (looked up): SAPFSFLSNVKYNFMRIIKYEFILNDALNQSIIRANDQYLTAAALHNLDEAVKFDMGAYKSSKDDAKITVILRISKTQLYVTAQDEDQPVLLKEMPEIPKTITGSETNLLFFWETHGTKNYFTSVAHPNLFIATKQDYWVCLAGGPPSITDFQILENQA

B1: mouse monoclonal antibody Mu007 (antibody, V domains shown)
VH: QVQLVQSGAEVKKPGASVKVSCKVSGYTFSRYWIEWVRQAPGKGLEWIGEILPGNGNINYNEKFKGKATITADTSTDTAYMELSSLRSEDTAVYYCSTIYYDYDQGFTYWGQGTLVTVSA
VL: DIKMTQSPSSMYASLGERVTITCKASQDIDRYLSWFQQKPGKSPKTLIYRVKRLVDGVPSRFSGSASGQDYSLTISSLQYEDMGIYYCLQYDEFPYTFGGGTKLEIK
B2: humanized antibody Hu007 (antibody, human IgG1, kappa, V domains shown)
VH: B1 VH with A120S
VL: DIQMTQSPSSLSASVGDRVTITCKASQDIDRYLSWFQQKPGKAPKSLIYRVKRLVDGVPSRFSGSASGTDYTLTISSLQPEDFATYYCLQYDEFPYTFGQGTKLEIKR
notes: the listing entries may be nucleotide entries with a translation; also called Hu007 IgG1 monoclonal antibody

Columns and labels:
human IL-1β [1] = biological target: T2, human IL-1β (human, UniProt P01584 117-269); assay: cell-based or functional assay
human IL-1α = biological target: T1, human IL-1α; assay: BIAcore (refers to Example 9)
Procedure: Affinities and specificities of both Hu007 and Mu007 were determined using BIAcore measurements. BIAcore™ is an automated biosensor system that measures molecular interactions. (Karlsson, et al. (1991) J. Immunol. Methods 145: 229-240). In these experiments antibody was immobilized at low density on a BIAcoreTm chip. Ethyl-dimethylaminopropyl-carbodiimide (EDC) was used to couple reactive amino groups to purified goat anti-human IgG or oat anti-rabbit IgG to a flow cell of a carboxy-methyl (CM5) BIAcore™ sensor chip. Goat IgG was diluted in sodium cetate buffer, pH 4.0, and immobilized on a flow cell of a M5 chip using EDC to yield 1000 response units. Unreacted sites were blocked with ehanolamine. A flow rate of 60 μl/min was used. Multiple binding/elution cycles were performed by injection a 100 μl solution of 15 μg/mL Mu007 or Hu007 followed by human IL-1β, mouse IL-1β, rat IL-1β, cynomolgus monkey IL-1β, porcine IL-1β, human IL-1 receptor antagonist, and human IL-1α at decreasing concentrations for each cycle (e.g. 1500, 750, 375, 188, 94, 47, 23.5, 12, and 0 picomolar). Elution was performed with glycine-HCl, pH 1.5. BIAevaluation™ was used to analyze the kinetic data. Table 2 depicts the affinities of Hu007 and Mu007 for human and cynomolgus IL1β. […] Cynomolgus and porcein IL-1β had 100% binding to Hu007 relative to human IL-1β.

human IL-1β [2] = biological target: T2, human IL-1β; assay: cell-based or functional assay; remark: listed apart in the source
human IL-1β [3] = biological target: T2, human IL-1β; assay: BIAcore, antibody immobilized at low density, ligand flowed (refers to Example 9)
Procedure: The binding affinity of the Mu007 antibody was determined using surface plasmon resonance (BIAcore™). In these experiments antibody was immobilized at low density on a BIAcore™ chip and ligand was flowed past. Build up of mass at the surface of the chip was measured. This analytical method allows the determination in real time of both on and off rates for binding. The Mu007 antibody has an affinity of approximately 6.0 picomolar (See Example 9). […] (See example 9). Hu007 comprises heavy and light chains that correspond to SEQ ID NO:17 and SEQ ID NO:13, respectively.
Affinities and specificities of both Hu007 and Mu007 were determined using BIAcore measurements. BIAcore™ is an automated biosensor system that measures molecular interactions. (Karlsson, et al. (1991) J. Immunol. Methods 145: 229-240). In these experiments antibody was immobilized at low density on a BIAcoreTm chip. Ethyl-dimethylaminopropyl-carbodiimide (EDC) was used to couple reactive amino groups to purified goat anti-human IgG or oat anti-rabbit IgG to a flow cell of a carboxy-methyl (CM5) BIAcore™ sensor chip. Goat IgG was diluted in sodium cetate buffer, pH 4.0, and immobilized on a flow cell of a M5 chip using EDC to yield 1000 response units. Unreacted sites were blocked with ehanolamine. A flow rate of 60 μl/min was used. […]

human IL-1β [4] = biological target: T2, human IL-1β; assay: ELISA competition on coated human IL-1β, competitor biotinylated Mu007
Procedure: (§1) Wells of 96-well ELISA plates (Nunc-Immuno plate, Cat # 439454, NalgeNunc) were coated with 100 μμl of 0.5 μg/ml of human IL-1β in 0.2M sodium carbonate-bicarbonate buffer (pH 9.4) overnight at 4° C., washed with Wash Buffer, blocked with Superblock blocking buffer for 30 min at 37° C., and washed again with Wash Buffer. A mixture of biotinylated Mu007 (0.16 μg/ml final concentration) and competitor antibody (Mu007 or Hu007; starting at 100 μg/ml final concentration and serial 3-fold dilutions) in ELISA Buffer were added in triplicate in a final volume of 100 μl per well. As a no-competitor control, 100 μl of 0.16 μg/ml biotinylated Mu007 was used. As a background control, 100 μl of ELISA Buffer was used. ELISA plates were incubated at 37° C. for 2 hr. After washing the wells with Washing Buffer, 100 μl of 1 μg/ml HRP-conjugated streptavidin (Jackson ImmunoResearch) was added to each well. ELISA plates were incubated at room temperature for 30 min and washed with Washing Buffer. For color development, 100 μl/well of ABTS substrate was added. Color development was stopped by adding 100 μl/well of 2% oxalic acid. Absorbance was read at 415 nm.
(§2) Both Mu007 and Hu007 competed with biotinylated Mu007 in a concentration-dependent manner. […]

human IL-1β [5] = biological target: T2, human IL-1β; assay: ELISA competition on coated human IL-1β, competitor biotinylated Mu007, Exp. A
Procedure: as §1, §2

human IL-1β [6] = biological target: T2, human IL-1β; assay: ELISA competition on coated human IL-1β, competitor biotinylated Mu007, Exp. B
Procedure: as §1, §2

human IL-1β [7] = biological target: T2, human IL-1β; assay: ELISA competition on coated human IL-1β, competitor biotinylated Mu007, Exp. C
Procedure: as §1, §2

human IL-1β [8] = biological target: T2, human IL-1β; assay: ELISA competition on coated human IL-1β, competitor biotinylated Mu007, average
Procedure: as §1, §2

Binder	inhibition of IL-1β stimulated proliferation of T1165.17 cells (3H-thymidine incorporation), average IC50 from three separate experiments (human IL-1β [1]) [nM]	binding result (human IL-1α)	IC50 (read off the curve) (human IL-1β [2]) [nM]	Kd (human IL-1β [3]) [nM]	neutralization of human IL-1β in the murine model of inflammatory stimulation, relative to Mu007 (human IL-1β [1])	relative binding, fold less than that of Mu007 (human IL-1β [4]) [fold]	Difference (IC50 of Hu007 against IC50 of Mu007) (human IL-1β [5]) [ratio]	Difference (IC50 of Hu007 against IC50 of Mu007) (human IL-1β [6]) [ratio]	Difference (IC50 of Hu007 against IC50 of Mu007) (human IL-1β [7]) [ratio]	Difference (IC50 of Hu007 against IC50 of Mu007) (human IL-1β [8]) [ratio]
B1	0.22	no binding	~0.2	~0.006	–	–	–	–	–	–
B2	0.48	–	~0.4	0.01 to 0.02	~0.33 fold of Mu007	1.3	0.98	0.88	0.82	0.89
